Data reported in a protein production outcome set (Wang et al. 2014).

Assay: label from the status in PepcDB records
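Note: failed if final PepcDB status was selected cloned or expressed and not failed if soluble or beyond.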

## MDQSTRARTRTAFAIDAVGQGAKAAVKAVWWTATGGLARSLTRPTEGPQARRFTPAAPPPVPGSLRRAYLEAFEKDARDVAAGLYPAIEDGPIRPSAALREAVDFLVDAFEVDQRRRRGDGAEVRNAADPSVYPNYYRQNFHYQSGGWFTAESAGRYDAQVEALFSGTAGAMRRRGLSLLARHWRGRDHRDAKILDVACGSGAFLKDLSAAFPRAALAGLDLSEAYLAKARKRTAVGGVKAKAETLPFGDATLDAVTCVYLFHELPPRVRPVVAASLARVLKPGGVLVLVDSVQPVDTPDLARLLEAFPVYFHEPYYSSYAETNLEALFAEAGLRLLDQDCAFLTKAMLFVKPGG
  protein production: failed

## MMIVDPKYCSLHPVDLAIVRKVLKITDGNFVITNAEGNLLFKVKDPFFSLHEKRILMDGFGTKVLTLKGKIMTMHDRWLVFRGGSTEEVDLLYTVKRSNMVQITTKLDVFLADNIEQKKCDYRLEGVWLETSCFVYAGDSDIILAQMREKKTMQSVLFGKDNFCLTVNPNVDYAFIASLIVILFHQKDDIYPIESLWKRDITDFIC
  protein production: failed

## MHNAGKQVAAPLETPMPAATAALLAERADHPLYVASVEKGMRVLEAFDAARDSLSLTDIVQLTGMGKSAAQRFTHTWEALGYLAKDPQSRRYRLGPKVVELSYYFLRSDHLVSLAAPHLVALREHCGLAVNMSVLSGDDMIYLLRLPSRQLTLVEMLPGRRMPAWSNSAGRMLLSQRDDASVRDLLARAAPQLYTPRTQTDPQALLAEIRQAREDGYAITQDQVLLNQMGVATLLRDERRQPLAAISVTAAADEYPRARLVAEIVPQMLKAAYAICGA
  protein production: failed

## DVLSSSNFILPDGIGVVMMSRLTNNRLQSRIAGYDVFKELLGVANKKKKRIFLYGAKKDVIKGVVSKISSEYPNIKIAGYSDGYVQDRTLVAKQIARANPDMVFVALGYPHQEKFIHNYRHLFPKAVSIGLGGSFDVFSGNVKRAPSWMIRLNLEWFYRLILNPWRWKRM
  protein production: not failed

## MGSVQVKAHADEQGRAVVRASIEIAAPPSVVFGVILDCGRAARMSPGVKRCRVVSRAADGSEVREHTVKWGFFLPALQSRSRLSLQPDREIRFTCIGGDIRACDGFWRLEPLDGGMRTRVTYDLWATAPYAAPAGLVSSLMRRTVPQSLAALRRECEGLEHHHHHH
  protein production: failed

## LQTSRDLLSSVLSSSLDGIIVFSAIRSAGDTIADFECVLVNPQAEKLFESTAEDIVGMRLREDMPRQEEKGLFEAYREVVETGEPAEMEVHYDTDGQDVWFQVMAVKVENGVAVTYRDITDRKEAERQIREQAQLLDKA
  protein production: failed

## MESLIGLVNRIQRACTVLGDYGGGTGSNAFNSLWEALPTVAVVGGQSSGKSSVLESIVGRDFLPRGSGIVTRRPLVLQLHKTDDGTEEYAEFLHLPKKQFTDFALVRREIQDETDRITGKNKQISPVPIHLSIYSPNVVNLTLIDLPGLTKVAVEGQPETIAEDIESMVRTYVDKPNCIILAISPANQDIATSDAIKLAKDVDPTGERTFGVLTKLDLMDKGTNALEVLEGRSYRLQHPWVGIVNRSQADINKNVDMMLARRKEREYFDTSPDYGHLASKMGSEYLAKLLSKHLESVIRTRIPSILSLINKSIEELERELDRMGRPVAVDAGAQLYTILEMCRAFDKIFKEHLDGGRPGGDRIYGVFDNQLPAALKKLPFDRHLSLQSVKKIVSEADGYQPHLIAPEQGYRRLIEGALGYFRGPAEASVDAVHYVLKELVRKSISETEELKRFPSLQVELAAAANSSLEKFREESKKSVIRLVDMESAYLTAEFFRKLPQEIERPVTNSKNQTASPSSATLDQYGDGHFRRIASNVSAYVNMVSDTLRNTIPKACVYCQVRQAKLALLNYFYSQISKREGKQLGQLLDEDPALMDRRLECAKRLELYKKARDEIDAVAWVR
  protein production: failed

## MLRLDTRFLPGFPEALSRHGPLLEEARRRLLAKRGEPGSMLGWMDLPEDTETLREVRRYREANPWVEDFVLIGIGGSALGPKALEAAFNESGVRFHYLDHVEPEPILRLLRTLDPRKTLVNAVSKSGSTAETLAGLAVFLKWLKAHLGEDWRRHLVVTTDPKEGPLRAFAEREGLKAFAIPKEVGGRFSALSPVGLLPLAFAGADLDALLMGARKANETALAPLEESLPLKTALLLHLHRHLPVHVFMVYSERLSHLPSWFVQLHDESLGKVDRQGQRVGTTAVPALGPKDQHAQVQLFREGPLDKLLALVIPEAPLEDVEIPEVEGLEAASYLFGKTLFQLLKAEAEATYEALAEAGQRVYALFLPEVSPYAVGWLMQHLMWQTAFLGELWEVNAFDQPGVELGKVLTRKRLAG
  protein production: not failed

## MDTSNLDTPMRMAAFDRVRGLNEVHDHLTATELQPGFLFRGERIPLVNPQRGIFKPHQMRFLLSIKTVFPKPGGKVWYDDQRDIQRQIFYGDEAIDYAFMGKNPDAADNRWLKEAYENQIPVVYFLGIAPGRYQALLPTFISGWDGQALKARITFGPNPEKLAPPSDSAERRYALRTVKQRLHQATFREAVISAYDGRCAFSGLPEPLLLDAAHIIADKDERLGHPVVTNGIPLSKIHHAAFDAHLIGIDPDFRLHVSDRLLGQNDGPMLEALKQLNGRNIRLPGRAKDHPDRDRLAMRFERYKSVA
  protein production: failed

## MKQSGTAAHKLTIFYVGMLLLFLIGLWLFATIGKELETNVVDKAMSLRGRGGLVGAFDSFSESVHHHFTDTIGVLLLQIIVILTVARLVAWFFGKIGQPTVIGEIVAGILLGPSLLGAVWPEAYEVLFPLSALANLELLSQFGLILFMFVIGMELNINDIKPRFSQSMIISHAGIFIPFLLGLLISYMTYKDYAADTTTFLPYGLFIGISMSITAFPVLARIIQERQLGKSHLGMLSISTAAAGDISAWLMLAGVMAITQSGSFLSAIYNFLFLILYLLVIFGLVRPFFKVIGRLYDNQEVVSKTMIGFIFVLLLASAYATELLSMHALFGAFMLGLVMPENVQFRKILTEKVEDVSLTLFLPLFFVSSGLQTKLGLLDSASLWLLTGAFTLIAIIGKFGGTYVAARFCGERKKASLYLGAFMNTRGLMELVVLAIGRELGILPPVIFTILVMMTLITTFMTTPLLRLIDLFFKRETELENAALQKENSGAVLLSFGRASSGAHLLHATDLLMHRGDEKPSVTALHITVGSDTNLTSSEVYEERAFAPIREESDRRRLPIRTLHHHTFEHPEAEVVRTVNAGGYSFLLVGAGINLSDRKSDRELLYFRKKLQRKLGPISIATPEALLNAHEMLRDKMHYFIEQTQCSVGIFIHRGFKHAGKVLLLMENEGDEELLAYARSLARNNGSVLDVLPETDGLPPTLSMGENRLKAGLPSTINISSYHFMLVSYRYWLRFAGECPSVIEHLPSTIIIHHRNDRSSTLKAAMI
  protein production: failed

## MEEVKFYVRCYDKIELARMYFPNLSNPVSVAKLRRWMRNCMPLMEELMAGDFHPKMKMFSAREVRLIVRYLGEPDGYVFMHEHADVK
  protein production: failed

## MKLTDRLLKIASLVSDGKKIADIGTDHGYIPVYLLKEGKVPFAVLADVNKGPLDNAHKEVIQNNLLDKVDLRLGSGIEILEIGEVEEVIIAGMGGILISELLEAKKEVAHNVEKLILQPMQAQEELRYYLLNNGYEILEEVLVREDFRIYEIIVA
  protein production: failed

## MSKRILFIVGSFSEGSFNRQLAKKAETIIGDRAQVSYLSYDRVPFFNQDLETSVHPEVAHAREEVQEADAIWIFSPVYNYAIPGPVKNLLDWLSRSLDLSDPTGPSVLQDKIVTVSSVANGASPEEVFEDYRSLLPFIRMHLVDQLTGVPINSEAWSTGILKVSAEKLAELSAQADALLSAVENLEHHHHHH
  protein production: not failed

## MLETDLEARMQILRESGFQESQGDDDTFAQRAEWFYQGRPLLLSLCLDLYNGYVTLLGRSSHQTRLKPTTSLPNQLLQDDDDCISDIDSVSEVSSEVESTLSFQQMKDPTAVSEKVDELVSQLVTASLDKEILKHELLHKDQQFHEASKTIELLKKFVMLLEMEKEVAVEENANLGYKLTSLLEENRELATEALFMKNEAVGLARCVLKMRDDHFHKVCILQNRIYSLQASRNSEPVSDKVSYGCFGLDKHKTKKKKENKTEEKKPGFKWLKKLNTINLFTKCSLNPSAAAPSCCTFDLPY
  protein production: failed

## MSRILITGAAGMVGRALLEELDEHDVFATDLVPPKATGAVTWLPMDVTTDDPDRIVGEVRPQVVIHLASIVTPGVARAVAHRVDVGGTRAVLDACLAHGVRRLVVTSSGAAYGYHADNPMPLRESDPLRGNPEFAYADHKRQVEEILAEARQSAPQLEQVVLRVGTVLGAGTENQITALFRKPRLLAVRGSESPFVFIWTRDLARILARAAGEGPAGIYNVAGDGAMGVSDLARALGKPVLRLPALTLKAALALARPLGLSRYGPEQVRFLQYRPVLANDALKQVFGYVPELASAEVFDLWRREAGL
  protein production: failed
